# Patent US20100111943
# B1: p300 protein (upstate) (protein)
# chain: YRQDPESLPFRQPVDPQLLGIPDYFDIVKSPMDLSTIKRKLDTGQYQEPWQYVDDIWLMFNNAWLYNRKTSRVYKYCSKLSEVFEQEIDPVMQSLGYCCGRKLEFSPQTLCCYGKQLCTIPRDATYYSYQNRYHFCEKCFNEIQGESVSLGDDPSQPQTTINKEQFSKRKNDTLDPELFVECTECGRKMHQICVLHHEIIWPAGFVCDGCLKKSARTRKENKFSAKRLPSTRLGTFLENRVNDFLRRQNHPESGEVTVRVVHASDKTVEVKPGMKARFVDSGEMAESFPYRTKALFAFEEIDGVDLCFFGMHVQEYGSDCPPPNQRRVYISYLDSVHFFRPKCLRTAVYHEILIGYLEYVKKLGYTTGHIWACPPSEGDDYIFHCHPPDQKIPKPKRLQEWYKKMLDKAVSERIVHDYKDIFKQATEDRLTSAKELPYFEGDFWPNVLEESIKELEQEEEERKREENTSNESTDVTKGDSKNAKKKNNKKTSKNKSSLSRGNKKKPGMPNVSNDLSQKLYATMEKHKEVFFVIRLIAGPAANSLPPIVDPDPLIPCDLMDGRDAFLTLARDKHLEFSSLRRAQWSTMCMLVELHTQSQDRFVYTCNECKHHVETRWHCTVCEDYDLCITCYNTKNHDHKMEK
# B2: PCAF (protein)
# chain: MSEAGGAGPGGCGAGAGAGAGPGALPPQPAALPPAPPQGSPCAAAAGGSGACGPATAVAAAGTAEGPGGGGSARIAVKKAQLRSAPRAKKLEKLGVYSACKAEESCKCNGWKNPNPSPTPPRADLQQIIVSLTESCRSCSHALAAHVSHLENVSEEEMNRLLGIVLDVEYLFTCVHKEEDADTKQVYFYLFKLLRKSILQRGKPVVEGSLEKKPPFEKPSIEQGVNNFVQYKFSHLPAKERQTIVELAKMFLNRINYWHLEAPSQRRLRSPNDDISGYKENYTRWLCYCNVPQFCDSLPRYETTQVFGRTLLRSVFTVMRRQLLEQARQEKDKLPLEKRTLILTHFPKFLSMLEEEVYSQNSPIWDQDFLSASSRTSQLGIQTVINPPPVAGTISYNSTSSSLEQPNAGSSSPACKASSGLEANPGEKRKMTDSHVLEEAKKPRVMGDIPMELINEVMSTITDPAAMLGPETNFLSAHSARDEAARLEERRGVIEFHVVGNSLNQKPNKKILMWLVGLQNVFSHQLPRMPKEYITRLVFDPKHKTLALIKDGRVIGGICFRMFPSQGFTEIVFCAVTSNEQVKGYGTHLMNHLKEYHIKHDILNFLTYADEYAIGYFKKQGFSKEIKIPKTKYVGYIKDYEGATLMGCELNPRIPYTEFSVIIKKQKEIIKKLIERKQAQIRKVYPGLSCFKDGVRQIPIESIPGIRETGWKPSGKEKSKEPRDPDQLYSTLKSILQQVKSHQSAWPFMEPVKRTEAPGYYEVIRFPMDLKTMSERLKNRYYVSKKLFMADLQRVFTNCKEYNPPESEYYKCANILEKFFFSKIKEAGLIDK
# Target: FLAG (F)-tagged hsp90α (wild type), P07900
row,Protein,"in vitro acetylation of hsp90α, Western analysis with anti-AcK antibody"
1,B1,Co-incubation with p300 was discovered to dose-dependently stimulate the acetylation of hsp90α
2,B2,This was not seen with PCAF
